What was measured:
[1] = target: T1, binding of TSP-1 protein to CD36, a TSP-1 receptor protein (Homo sapiens, UniProt P07996); assay: ELISA: blocking of CD36 binding to TSP-1 protein; settings: 100 μM polypeptide, 0.25 μg/mL Fc-tagged CD36, blocking of CD36 binding to TSP-1; for inhibition at 100 µM: 3 h, read-out: Blocking rate (Mean, %)
T1 construct: purchased novoprotein (TSP-1); R&D Systems (Fc-tagged CD36) CU45 (TSP-1); 1955-CD-050 (CD36-Fc)
Description: ELISA assay was performed to detect the ability of the polypeptides to block the binding of TSP-1 protein to CD36, a TSP-1 receptor protein. TSP-1 protein (novoprotein, Catalog No. CU45) was diluted to 2 μg/mL using 100 mM carbonate buffer and added to sample wells (100 μL/well) of a 96-well ELISA plate (Thermo, Catalog No. 437111), and incubated overnight at 4° C.; after washing the plate twice using 1×PBST wash solution, 200 μL of 1.5% BSA (Sigma, Catalog No. B2064) was added to each well, and incubated at 37° C. for 2 h; after washing the plate 3 times using 1×PBST wash solution, the analytes were added (100 μL/well, 3 replicate wells; for the control group, 0.25 μg/mL of Fc-tagged CD36 protein (R&D Systems, Catalog No. 1955-CD-050); and for the polypeptide-treated groups, a mixture containing Fc-tagged CD36 protein and polypeptide at final concentrations of 0.25 μg/mL and 100 μM, respectively), and incubated at 37° C. for 3 h. After washing the plate 5 times using 1×PBST wash solution, a 1:500 dilution solution of FITC-labeled anti-Fc-tagged antibody (Beyotime, Catalog No. A0556) was added, and incubated for 1 h at 37° C.; after washing the plate 5 times using 1×PBST wash solution, a multifunctional ELISA instrument (TECAN, model: Infinite 200 Pro) was used to detect the intensity of FITC fluorescence signal in each sample well. The ability of the polypeptides to block CD36 binding to TSP-1 protein (Table 2-1) was assessed by calculating the ratio of the fluorescence signal from the polypeptide-treated groups to that of the control group, allowing for the determination of the blocking rate of the polypeptides in inhibiting CD36 binding to TSP-1 protein, i.e., (fluorescence signal of the control group-fluorescence signal of the polypeptide-treated group)/fluorescence signal of the control group×100%. Based on the blocking rate results obtained at the single concentration and on the polypeptide molecule properties, the preferred polypeptide molecules were assayed for concentration dependence (at 0 μM, 0.5 μM, 1 μM, 5 μM, 10 μM, and 100 μM), and IC50 values of the polypeptides for blocking CD36 binding to TSP-1 protein were determined to further assess the abilities of the preferred polypeptide molecules to block the binding of CD36 to TSP-1 (Table 2-2).

P-Smad2/3 = P-Smad2/3 content in lung tissue, BLM mouse fibrosis model; type: in vivo; settings: single intratracheal dose 3 mg/kg on Day 7, lung 24 h later; BLM model group = 100.00
Description: This example aimed to evaluate the inhibitory effect of polypeptides on the TGF-β downstream signaling pathway during fibrosis progression. TGF-β intracellular signaling relies on the phosphorylation events of Smad family proteins. The increase in Smad2/3 phosphorylation levels is an important indicator that signal transduction has occurred in the TGF-β signaling pathway.
In this example, 6- to 8-week-old male C57/6J mice weighing 18-20 g were used as subjects for the study. The experimental animals were randomized into groups, eight animals in each group. In this example, intratracheal administration was performed using an aerosol intratracheal metered dosing applicator during both the modeling and drug delivery processes, as described in Example 4. On the day of modeling (Day 1), the experimental animals were randomly assigned to groups and administered a 0.7 USP/kg dose of bleomycin solution (HanHui Pharmaceutical, Batch No. 20080511) via the tracheal route to induce the model. On Day 7, each peptide-treated group received a single intratracheal dose of peptide drug at a dosage of 3 mg/kg, while the BLM model group was given an equal volume of solvent (saline) as a control. Twenty-four hours after drug administration, the animals were dissected, and the lung tissues were collected and frozen in liquid nitrogen for future use. Total protein from the lung tissue was extracted after grinding the tissue in liquid nitrogen, and the total P-Smad2/3 content in the tissue was measured by using P-Smad2/3 ELISA kit (CST, Catalog No. 12001C). The ratio of the P-Smad2/3 content between the peptide-treated group and the model group was calculated to evaluate the effect of the peptide on TGFβ signaling.

active TGF-β = assay: Active TGF-β level in lung tissue, bleomycin (BLM) mouse lung fibrosis model; type: in vivo; settings: single intratracheal dose 3 mg/kg on Day 7, lung 24 h later; BLM model group = 100.00
Description: This Example was to evaluate the inhibitory effect of polypeptides on active TGF-β level during the progression of fibrotic disease. In this Example, a mouse lung fibrosis model induced by bleomycin (BLM) was used. The BLM animal model offers advantages, including a close mimicry of the pathological features of the primary disease, ease of use, and good reproducibility. It is the most representative model for studying the mechanisms of fibrosis and is recommended for evaluating drug efficacy.
In this Example, 6 to 8-week-old male C57/6J mice weighing 18-20 g were used as subjects for the study. The experimental animals were randomized into groups, 8 animals in each group, and the expressions of pro-fibrotic factors were detected at the endpoint of the experiment (Day 8) in this model. In this example, an aerosol intratracheal metered dosing applicator (Yuyan, model YAN30012) was utilized for intratracheal administration during the modeling and drug delivery processes. The dosing was performed as follows (An Official American Thoracic Society Workshop Report: Use of Animal Models for the Preclinical Assessment of Potential Therapies for Pulmonary Fibrosis, Am J Respir Cell Mol Biol Vol 56, Iss 5, pp 667-679, May 2017): The experimental animals were anesthetized with aerosolized isoflurane (RWD, lot no. 22041701) using a small animal anesthesia machine (RWD, model R500IE). Animals in the appropriate anesthetic state were positioned supine with heads facing up and bodies tilted on an operating platform (tilted at approximately) 60°, secured by their incisors. The practitioner gently lifted the tongue with tissue forceps in the right hand, pushing it outward and upward to open the animal's lower jaw. Holding the laryngoscope (Yuyan, model SR310-RW) in the left hand, the practitioner slid its anterior leaf-shaped blade along the midline of the tongue into the oral cavity until reaching the glottis, gently pressing the body and root of the tongue upward. The needle of the drug applicator was then inserted through the mouth into the glottis alongside the laryngoscope, and 50 μL of liquid was quickly injected. On the day of modeling (Day 1), the experimental animals were randomly assigned to groups and administered a 0.7 USP/kg dose of bleomycin solution (HanHui Pharmaceutical, Batch No. 20080511) via the tracheal route to induce the model. On Day 7, each peptide-treated group received a single intratracheal dose of 50 μL peptide drug (at a dosage of 3 mg/kg), while the model group was given an equal volume of solvent (saline, Kelong, Batch No. L221062501) as a control. Twenty-four hours after drug administration, the animals were dissected to collect lung tissue, which was ground in liquid nitrogen to extract total protein from the lung tissue. The active TGF-β content in the lung tissue of mice from each group was measured using the TGF-β ELISA kit (BOSTER, catalog number EK0515). The ratio of active TGF-β content between the peptide-treated group and the model group was calculated to evaluate the effect of the peptide on active TGF-β level.

T1 sequence (P07996 19-1170): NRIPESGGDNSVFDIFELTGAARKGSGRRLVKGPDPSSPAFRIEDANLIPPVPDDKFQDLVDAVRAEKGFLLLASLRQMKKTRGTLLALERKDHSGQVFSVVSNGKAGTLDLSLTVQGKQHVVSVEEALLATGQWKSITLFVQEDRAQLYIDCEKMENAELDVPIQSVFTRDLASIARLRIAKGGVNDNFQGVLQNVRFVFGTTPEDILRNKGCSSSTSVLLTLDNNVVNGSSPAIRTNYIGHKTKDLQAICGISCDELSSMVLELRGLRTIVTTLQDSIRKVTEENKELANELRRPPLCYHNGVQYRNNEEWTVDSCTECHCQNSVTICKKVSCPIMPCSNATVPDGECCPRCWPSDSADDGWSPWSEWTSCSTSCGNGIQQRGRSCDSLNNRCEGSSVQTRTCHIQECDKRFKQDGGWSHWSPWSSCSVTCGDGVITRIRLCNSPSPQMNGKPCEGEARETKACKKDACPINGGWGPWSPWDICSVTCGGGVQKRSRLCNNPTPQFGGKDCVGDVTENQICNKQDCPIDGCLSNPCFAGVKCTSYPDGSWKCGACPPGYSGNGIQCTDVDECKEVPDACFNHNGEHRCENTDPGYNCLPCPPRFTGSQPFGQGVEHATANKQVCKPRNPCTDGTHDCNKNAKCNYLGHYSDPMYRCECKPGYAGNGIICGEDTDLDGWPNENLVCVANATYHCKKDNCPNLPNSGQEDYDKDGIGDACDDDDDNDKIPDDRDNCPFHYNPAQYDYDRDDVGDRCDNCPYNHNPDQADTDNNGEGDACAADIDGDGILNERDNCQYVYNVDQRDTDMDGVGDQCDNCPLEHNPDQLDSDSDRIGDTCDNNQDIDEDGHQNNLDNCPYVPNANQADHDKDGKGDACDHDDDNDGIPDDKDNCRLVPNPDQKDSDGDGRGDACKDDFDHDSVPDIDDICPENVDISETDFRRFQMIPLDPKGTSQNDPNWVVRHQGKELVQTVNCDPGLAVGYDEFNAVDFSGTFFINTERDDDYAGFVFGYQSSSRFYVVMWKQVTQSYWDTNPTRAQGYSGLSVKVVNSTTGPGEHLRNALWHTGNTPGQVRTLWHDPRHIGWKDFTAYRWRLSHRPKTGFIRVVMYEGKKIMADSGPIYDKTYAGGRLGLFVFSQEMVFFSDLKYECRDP

Row | Blocking rate (Mean, %) [1] [%] | inhibition at 100 µM [1] [%] | Substance | P-Smad2/3 content in lung tissue, ratio to model group, Mean(%) (P-Smad2/3) | active TGF-β content in lung tissue, ratio to model group, Mean(%) (active TGF-β)
1 | – | 22.8 | Ac-QDAEDNTAS-NH2 [SEQ ID NO: 23, Ac-Gln-Asp-Ala-Glu-Asp-Asn-Thr-Ala-Ser-NH2] | – | –
2 | 22.41 | – | Ac-Ser-Gln-Asp-Ala-Glu-Asp-Asn-Thr-Val-Ser-Phe-Leu-Gln-NH2 (Ac-SQDAEDNTVSFLQ-NH2) [SEQ ID NO: 37] | – | –
3 | 21.71 | – | Ac-Ser-Gln-Asp-Ala-Glu-Asp-Asn-Thr-Val-Ser-Phe-NH2 (Ac-SQDAEDNTVSF-NH2) [SEQ ID NO: 28] | – | –
4 | – | 30.2 | Ac-TQDAEDNTQD-NH2 [SEQ ID NO: 49, Ac-Thr-Gln-Asp-Ala-Glu-Asp-Asn-Thr-Gln-Asp-NH2] | 91.98 | 82.64
5 | – | 29.7 | Ac-TQDPAEDN-NH2 [SEQ ID NO: 48, Ac-Thr-Gln-Asp-Pro-Ala-Glu-Asp-Asn-NH2] | 80.57 | 82.97
6 | 16.86 | – | Ac-Thr-Asn-Asp-Ala-Glu-Asp-Asn-Thr-Val-NH2 (Ac-TNDAEDNTV-NH2) [SEQ ID NO: 19] | – | –
7 | 21.58 | – | Ac-Thr-Gln-Asp-Ala-Glu-Asp-Asn-Thr-Ala-Ser-His-Leu-NH2 (Ac-TQDAEDNTASHL-NH2) [SEQ ID NO: 35] | – | –
8 | 18.44 | – | Ac-Thr-Gln-Asp-Ala-Glu-Asp-Asn-Thr-Ala-Ser-Phe-NH2 (Ac-TQDAEDNTASF-NH2) [SEQ ID NO: 31] | 90.02 | 83.22
9 | 20.44 | – | Ac-Thr-Gln-Asp-Ala-Glu-Asp-Asn-Thr-Ala-Ser-Trp-NH2 (Ac-TQDAEDNTASW-NH2) [SEQ ID NO: 34] | – | –
10 | 21.45 | – | Ac-Thr-Gln-Asp-Ala-Glu-Asp-Asn-Thr-Ala-Ser-Tyr-NH2 (Ac-TQDAEDNTASY-NH2) [SEQ ID NO: 32] | – | –
11 | 25.53 | – | Ac-Thr-Gln-Asp-Ala-Glu-Asp-Asn-Thr-Val-Ser-Phe-NH2 (Ac-TQDAEDNTVSF-NH2) [SEQ ID NO: 27] | 88.69 | 89.89
12 | 26.03 | – | Ac-Thr-Gln-Asp-Pro-Glu-Asp-Asn-Thr-Val-NH2 (Ac-TQDPEDNTV-NH2) [SEQ ID NO: 20] | – | –
13 | 22.29 | – | Ac-Thr-Gln-Asp-Pro-Glu-Asp-Asn-Thr-Val-Ser-Phe-Leu-Gln-NH2 (Ac-TQDPEDNTVSFLQ-NH2) [SEQ ID NO: 39] | – | –
14 | 22.45 | – | Ac-Thr-Gln-Asp-Pro-Glu-Asp-Asn-Thr-Val-Ser-Phe-NH2 (Ac-TQDPEDNTVSF-NH2) [SEQ ID NO: 30] | – | –
15 | 15.63 | – | Ac-Thr-Gln-Asp-Ser-Glu-Asp-Asn-Thr-Val-NH2 (Ac-TQDSEDNTV-NH2) [SEQ ID NO: 21] | – | –
16 | 25.05 | – | Ac-Thr-Glu-Asp-Ala-Glu-Asp-Asn-Thr-Val-Ser-Phe-NH2 (Ac-TEDAEDNTVSF-NH2) [SEQ ID NO: 29] | – | –
17 | 20.22 | – | Ac-Thr-Ser-Asp-Ala-Glu-Asp-Asn-Thr-Val-Ser-Phe-Leu-Gln-NH2 (Ac-TSDAEDNTVSFLQ-NH2) [SEQ ID NO: 38] | – | –

The next lines start with the substance.

Row | Substance | Blocking rate (Mean, %) [1] [%] | inhibition at 100 µM [1] [%] | P-Smad2/3 content in lung tissue, ratio to model group, Mean(%) (P-Smad2/3) | active TGF-β content in lung tissue, ratio to model group, Mean(%) (active TGF-β)
18 | Ac-Gln-Asp-Ala-Glu-Asp-Asn-Thr-Ala-NH2 (Ac-QDAEDNTA-NH2) [SEQ ID NO: 16] | 24.87 | – | – | –
19 | Ac-Gln-Asp-Ala-Glu-Asp-NH2 (Ac-QDAED-NH2) [SEQ ID NO: 02] | 16.39 | – | – | –
20 | Ac-Gln-Asp-Pro-Glu-Asp-NH2 (Ac-QDPED-NH2) [SEQ ID NO: 01] | 17.84 | – | – | –
21 | Ac-Ser-Gln-Asp-Ala-Glu-Asp-Asn-NH2 (Ac-SQDAEDN-NH2) [SEQ ID NO: 07] | 16.42 | – | 80.71 | 71.66
22 | Ac-Ser-Gln-Asp-Ala-Glu-Asp-Asn-Thr-Val-NH2 (Ac-SQDAEDNTV-NH2) [SEQ ID NO: 18] | 18.79 | – | – | –
23 | Ac-TQDAEDNT-NH2 [SEQ ID NO: 15, Ac-Thr-Gln-Asp-Ala-Glu-Asp-Asn-Thr-NH2] | – | 30.6 | – | –
24 | Ac-Thr-Asn-Asp-Ala-Glu-Asp-Asn-NH2 (Ac-TNDAEDN-NH2) [SEQ ID NO: 08] | 16.70 | – | 83.02 | 80.31
25 | Ac-Thr-Gln-Asp-Ala-Glu-Asp-Asn-Thr-Val-NH2 (Ac-TQDAEDNTV-NH2) [SEQ ID NO: 17] | 29.16 | – | 74.12 | 71.36
26 | Ac-Thr-Gln-Asp-Ala-Glu-Asp-Pro-NH2 (Ac-TQDAEDP-NH2) [SEQ ID NO: 13] | 16.56 | – | – | –
27 | Ac-Thr-Gln-Asp-Pro-Glu-Asp-NH2 (Ac-TQDPED-NH2) [SEQ ID NO: 03] | 16.02 | – | – | –
28 | Ac-Thr-Gln-Asp-Ser-Glu-Asp-Asn-NH2 (Ac-TQDSEDN-NH2) [SEQ ID NO: 11] | 15.19 | – | – | –
29 | Ac-Thr-Ser-Asp-Ala-Glu-Asp-Asn-NH2 (Ac-TSDAEDN-NH2) [SEQ ID NO: 10] | 14.54 | – | – | –

— patent publication US20250388623A1, “PEPTIDE INHIBITOR AND USE THEREOF” (CHENGDU BRILLIANT INSPIRATION BIOTHERAPEUTICS CO., LTD, priority 2022, published 2025)
